Laboratory results reported in patent publication US6274553A, “Method for stabilizing peptides and freeze-dried medicinal compositions containing peptides obtained by using the method” (Japan Energy Corporation, priority 1997, dated 2001).

How the values were obtained:
Assay type in all cases: physicochemical
[1] = Storage stability of lyophilized HV1C3 at 60° C., pH adjusting agents (Experiment Example 2); conditions: saccharose, mannitol
Procedure: (§1) Hirudin variant HV1C3, purified saccharose, and mannitol were dissolved in purified water to a final concentration of 6 mg/ml (0.86 mM), 1.6 mg/ml (4.7 mM), and 10 mg/ml (55 mM), respectively. The resulting solution was divided into five equal portions. Four of these portions were adjusted to pH 5.5 with the addition of 30 mM of acetic acid, tartaric acid, citric acid, or phosphoric acid. The peptide solutions for which the pH was thus adjusted and the peptide solution without pH adjustment were filtered through a 0.22 μm membrane filter. The filtrates were filled into 6 ml vials in the amount of 1 ml for each vial. 50 such vials were prepared for each pH of the solution, 250 vials in total. All these 250 vials were lyophilized.
(§2) The lyophilized samples were stored in an incubator at 60° C. and removed from the incubator after 1, 2, 3, 4, 5, 6, 7, and 8 weeks, respectively. 1 ml of purified water was added to each vial removed. Solutions further diluted 50-fold were used to measure the amount (percentage) of the hirudin variant HV1C3 remaining in the lyophilized sample in the same manner as in Experiment Example 1.

[2] = Storage stability of lyophilized HV1C3 at 60° C., pH with tartaric acid (Experiment Example 3); conditions: saccharose, mannitol
Procedure: as §1, with “four” for “five”, “Three” for “Four”, “pHs 5.0, 5.5, and 6.0 using” for “pH 5.5 with the addition of”, “mM” for “mM of acetic acid,”, “tartaric” for “tartaric acid, citric acid, or phosphoric”, “200” for “250”
as §2

[3] = Amount of isomers in lyophilized HV1C3 stored at 60° C., saccharose/mannitol (Experiment Example 5); conditions: pH 5.5, 5 mM tartaric acid
Procedure: In the same manner as in Experiment Example 1, hirudin variant HV1C3, purified saccharose, and mannitol were dissolved in purified water to a concentration of 6 mg/ml (0.86 mM) of hirudin variant HV1C3 and concentrations of purified saccharose and mannitol respectively shown in Table 6. The solution was adjusted to pH 5.5 using 5 mM tartaric acid to obtain a peptide solution. The peptide solutions for which the pH was adjusted and the peptide solution before pH adjustment were filtered through a 0.22 μm membrane filter. The filtrates were filled into 6 ml vials in the amount of 1 ml for each vial and lyophilized.
The lyophilized samples were stored in an incubator at 60° C. and removed from the incubator after 4 and 8 weeks, respectively. […] was added to each vial removed. Solutions further diluted 50-fold were subjected to liquid chromatography to measure a peak area percentage of isomers other than the hirudin variant HV1C3.

[4] = no saccharose, mannitol 10 mg/ml
[5] = purified saccharose 1.6 mg/ml, mannitol 10 mg/ml
[6] = purified saccharose 1.6 mg/ml, no mannitol

B1: hirudin variant HV1C3: Hirudin variant having the amino acid sequence shown by Sequence No. 1 (JP Laid-open No. 173798/1992) (protein)
chain: VVYTDCTESGQNLCLCEGSNVCGQGNKCILGSDGEKNQCVTGEGTPKPQSHNQGDFEPIPEDAYDE
- Remaining peptide (%) 1 wk ([1]; pH 5.5, acetic acid 30 mM): 98.3%
- Remaining peptide (%) 2 wks ([1]; pH 5.5, acetic acid 30 mM): 95.6%
- Remaining peptide (%) 3 wks ([1]; pH 5.5, acetic acid 30 mM): 94.2%
- Remaining peptide (%) 4 wks ([1]; pH 5.5, acetic acid 30 mM): 93.3%
- Remaining peptide (%) 5 wks ([1]; pH 5.5, acetic acid 30 mM): 92.0%
- Remaining peptide (%) 6 wks ([1]; pH 5.5, acetic acid 30 mM): 91.9%
- Remaining peptide (%) 7 wks ([1]; pH 5.5, acetic acid 30 mM): 91.4%
- Remaining peptide (%) 8 wks ([1]; pH 5.5, acetic acid 30 mM): 90.6%
- Remaining peptide (%) 1 wk ([1]; pH 5.5, citric acid 30 mM): 97.4%
- Remaining peptide (%) 2 wks ([1]; pH 5.5, citric acid 30 mM): 95.8%
- Remaining peptide (%) 3 wks ([1]; pH 5.5, citric acid 30 mM): 94.4%
- Remaining peptide (%) 4 wks ([1]; pH 5.5, citric acid 30 mM): 93.3%
- Remaining peptide (%) 5 wks ([1]; pH 5.5, citric acid 30 mM): 92.4%
- Remaining peptide (%) 6 wks ([1]; pH 5.5, citric acid 30 mM): 91.6%
- Remaining peptide (%) 7 wks ([1]; pH 5.5, citric acid 30 mM): 90.8%
- Remaining peptide (%) 8 wks ([1]; pH 5.5, citric acid 30 mM): 89.8%
- Remaining peptide (%) 1 wk ([1]; pH 5.5, phosphoric acid 30 mM): 77.9%
- Remaining peptide (%) 2 wks ([1]; pH 5.5, phosphoric acid 30 mM): 66.6%
- Remaining peptide (%) 3 wks ([1]; pH 5.5, phosphoric acid 30 mM): 61.4%
- Remaining peptide (%) 4 wks ([1]; pH 5.5, phosphoric acid 30 mM): 58.1%
- Remaining peptide (%) 5 wks ([1]; pH 5.5, phosphoric acid 30 mM): 57.3%
- Remaining peptide (%) 6 wks ([1]; pH 5.5, phosphoric acid 30 mM): 57.6%
- Remaining peptide (%) 1 wk ([1]; pH 5.5, tartaric acid 30 mM): 98.4%
- Remaining peptide (%) 2 wks ([1]; pH 5.5, tartaric acid 30 mM): 97.6%
- Remaining peptide (%) 3 wks ([1]; pH 5.5, tartaric acid 30 mM): 95.9%
- Remaining peptide (%) 4 wks ([1]; pH 5.5, tartaric acid 30 mM): 95.2%
- Remaining peptide (%) 5 wks ([1]; pH 5.5, tartaric acid 30 mM): 92.4%
- Remaining peptide (%) 6 wks ([1]; pH 5.5, tartaric acid 30 mM): 92.2%
- Remaining peptide (%) 7 wks ([1]; pH 5.5, tartaric acid 30 mM): 91.9%
- Remaining peptide (%) 8 wks ([1]; pH 5.5, tartaric acid 30 mM): 90.6%
- Remaining peptide (%) 1 wk ([1]; without pH adjustment): 96.9%
- Remaining peptide (%) 2 wks ([1]; without pH adjustment): 94.2%
- Remaining peptide (%) 3 wks ([1]; without pH adjustment): 92.3%
- Remaining peptide (%) 4 wks ([1]; without pH adjustment): 90.9%
- Remaining peptide (%) 5 wks ([1]; without pH adjustment): 89.9%
- Remaining peptide (%) 6 wks ([1]; without pH adjustment): 88.2%
- Remaining peptide (%) 7 wks ([1]; without pH adjustment): 87.2%
- Remaining peptide (%) 8 wks ([1]; without pH adjustment): 86.1%
- Remaining peptide (%) 1 wk ([2]; pH 5.0, 30 mM tartaric acid): 97.6%
- Remaining peptide (%) 2 wks ([2]; pH 5.0, 30 mM tartaric acid): 96.1%
- Remaining peptide (%) 3 wks ([2]; pH 5.0, 30 mM tartaric acid): 93.2%
- Remaining peptide (%) 4 wks ([2]; pH 5.0, 30 mM tartaric acid): 91.8%
- Remaining peptide (%) 5 wks ([2]; pH 5.0, 30 mM tartaric acid): 91.7%
- Remaining peptide (%) 6 wks ([2]; pH 5.0, 30 mM tartaric acid): 89.9%
- Remaining peptide (%) 7 wks ([2]; pH 5.0, 30 mM tartaric acid): 69.1%
- Remaining peptide (%) 8 wks ([2]; pH 5.0, 30 mM tartaric acid): 86.6%
- Remaining peptide (%) 1 wk ([2]; pH 5.5, 30 mM tartaric acid): 98.4%
- Remaining peptide (%) 2 wks ([2]; pH 5.5, 30 mM tartaric acid): 97.6%
- Remaining peptide (%) 3 wks ([2]; pH 5.5, 30 mM tartaric acid): 95.9%
- Remaining peptide (%) 4 wks ([2]; pH 5.5, 30 mM tartaric acid): 95.2%
- Remaining peptide (%) 5 wks ([2]; pH 5.5, 30 mM tartaric acid): 92.4%
- Remaining peptide (%) 6 wks ([2]; pH 5.5, 30 mM tartaric acid): 92.2%
- Remaining peptide (%) 7 wks ([2]; pH 5.5, 30 mM tartaric acid): 91.9%
- Remaining peptide (%) 8 wks ([2]; pH 5.5, 30 mM tartaric acid): 90.6%
- Remaining peptide (%) 1 wk ([2]; pH 6.0, 30 mM tartaric acid): 98.4%
- Remaining peptide (%) 2 wks ([2]; pH 6.0, 30 mM tartaric acid): 97.6%
- Remaining peptide (%) 3 wks ([2]; pH 6.0, 30 mM tartaric acid): 96.6%
- Remaining peptide (%) 4 wks ([2]; pH 6.0, 30 mM tartaric acid): 96.1%
- Remaining peptide (%) 5 wks ([2]; pH 6.0, 30 mM tartaric acid): 94.6%
- Remaining peptide (%) 6 wks ([2]; pH 6.0, 30 mM tartaric acid): 93.6%
- Remaining peptide (%) 7 wks ([2]; pH 6.0, 30 mM tartaric acid): 91.8%
- Remaining peptide (%) 8 wks ([2]; pH 6.0, 30 mM tartaric acid): 92.2%
- Remaining peptide (%) 1 wk ([2]; without pH adjustment): 96.9%
- Remaining peptide (%) 2 wks ([2]; without pH adjustment): 94.2%
- Remaining peptide (%) 3 wks ([2]; without pH adjustment): 92.3%
- Remaining peptide (%) 4 wks ([2]; without pH adjustment): 90.9%
- Remaining peptide (%) 5 wks ([2]; without pH adjustment): 89.9%
- Remaining peptide (%) 6 wks ([2]; without pH adjustment): 88.2%
- Remaining peptide (%) 7 wks ([2]; without pH adjustment): 87.2%
- Remaining peptide (%) 8 wks ([2]; without pH adjustment): 86.1%
- The amount of isomers (%) 4 weeks [3, 4]: 6.93%
- The amount of isomers (%) 8 weeks [3, 4]: 7.99%
- The amount of isomers (%) 4 weeks ([3]; no saccharose, no mannitol): 5.72%
- The amount of isomers (%) 8 weeks ([3]; no saccharose, no mannitol): 6.13%
- The amount of isomers (%) 4 weeks [3, 5]: 7.23%
- The amount of isomers (%) 8 weeks [3, 5]: 8.58%
- The amount of isomers (%) 4 weeks [3, 6]: 4.90%
- The amount of isomers (%) 8 weeks [3, 6]: 5.00%
